Data on three substances can be found in paper doi:10.1101/2023.05.30.542861.

One data set has as its system P00330. The experiment in a line: mass photometry. The following applies: other: mass photometry.
Data set [1] has as its target Alcohol dehydrogenase from baker's yeast (baker's yeast) (UniProt P00330). As to the kind of experiment: cross-linking.
The target of data set [2] is subunits of the human 20S proteasome (28 subunits). The experiment in a line: cross-linking.

With “Alcohol dehydrogenase from baker's yeast”, in the data set with P00330, the “% monomers after 5 min in guanidine HCl (dMP)” value is “∼34 % monomers”.

In data set [1], “Alcohol dehydrogenase from baker's yeast (from UniProt P00330 1-348) (enzyme)” gave a % of total counts as dimers (25:1 DSBU:ADH) of 25%, a % of total counts as monomers (25:1 DSBU:ADH) of 50%, a % of total counts as tetramers (25:1 DSBU:ADH) of 10% and a % of total counts as tetramers (DSBU molar excess ≥ 100) of 53%. In data set [1], this substance displayed a % of total counts as trimers (25:1 DSBU:ADH) of 14% and a stoichiometry N of 4.

In data set [2], “subunits of the human 20S proteasome (28 subunits)” yielded a % covalently stabilised 20S proteasome (25:1 DSBU:20S) of 16% and a % covalently stabilised 20S proteasome (400:1 DSBU:20S) of 25%.

What is called stoichiometry N is the number of molecules, sites or subunits per partner or assembly.
